This note sets out measurements from PMC2755649 (Nature cell biology, 2009).

Residue numbers refer to the chain shown, from its start.

Experiment [1] concerns the target T1, Recombinant InlC.K173A with a C-terminal 6xHis tag (Listeria monocytogenes, UniProt P71451 35-297, K173A).
T1 sequence (looked up): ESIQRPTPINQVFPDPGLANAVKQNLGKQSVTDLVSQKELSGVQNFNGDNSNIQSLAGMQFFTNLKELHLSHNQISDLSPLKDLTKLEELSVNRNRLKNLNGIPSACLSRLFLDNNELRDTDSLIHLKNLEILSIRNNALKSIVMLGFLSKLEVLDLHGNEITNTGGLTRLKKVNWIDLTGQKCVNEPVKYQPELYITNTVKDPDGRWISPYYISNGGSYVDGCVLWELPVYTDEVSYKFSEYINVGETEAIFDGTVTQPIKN
Description: SPR. Background: In SPR one partner is held on a chip, and binding of the other changes the refractive index at the surface.

In experiment [2] the target is T2, Recombinant wild-type InlC with a C-terminal 6xHis tag (Listeria monocytogenes, UniProt P71451 35-297).
T2 sequence (looked up): T1 sequence (looked up) with A139K
Description: SPR.

B1: SH36 protein of Tuba linked to the biosensor chip (domain or fragment, human, UniProt Q6XZF7 1513-1577, looked up)
chain: EGNQVYFAVYTFKARNPNELSVSANQKLKILEFKDVTGNTEWWLAEVNGKKGYVPSNYIRKTEYT
Take B1: the equilibrium dissociation constant (Kd) (usually a measure of binding affinity in units of concentration) came to 58 ± 12.3 µM in experiment [1] and 9 ± 3.5 µM in experiment [2].
